US20030017502A1, “Methods involving the use of capG as a diagnostic marker and methods for the identification of capG modulators for the treatment and prevention of osteoporosis and related disease states” (priority 2001, published 2003)

Tested on: capG phosphorylation in RAW 264 cells
Assay: two-dimensional anti-phosphotyrosine Western blot of RAW 264 cell lysates with and without RANKL stimulation and inhibitor pretreatment
Format: cell-based, murine
Details: RAW 264 cells stimulated with RANKL versus unstimulated control
Procedure: RAW 264 cells were obtained from Bristol Myers Squibb Department of Metabolic Diseases. The cells were grown in minimal essential media supplemented with 5% fetal bovine serum and 1% nonessential amino acids. For assay purposes, RAW 264 cells were starved for 5 hours in serum free media and then cultured in media containing 2% fetal bovine serum and RANK ligand. When inhibitors were used, as set forth below, the cells were pre-exposed to the inhibitor for one hour prior to RANKL stimulation. To identify RANKL specific tyrosine phosphorylation, RAW264 cells were treated with RANKL in the presence and absence of PP1 [4-Amino-5-(4-methylphenyl)-7-(t-butyl)pyrazolo[3,4-d]pyrimidine], a specific inhibitor of pp60src and wortmannin, a specific inhibitor of PI3kinase (Lakkakorpi, P. T. et al., “Phosphatidylinositol 3-kinase association with the osteoclast cytoskeleton, and its involvement in osteoclast attachment and spreading”. Exp. Cell Res. 237(2):296-306 (1997)), and cell lysates evaluated by proteomic analysis. Cell lysates were separated by two-dimensional electrophoresis in duplicate and transferred to PVDF membranes. […] 35(6):672-682 (2000), for subsequent proteomic analysis with the corresponding membrane analyzed by western blotting using anti-phosphotyrosine antibody. […] Maximal fluorescence incorporation occurred within 4 hours. […]

B1: RANKL: ligand recognized by receptor activator of NF-κB (RANK), leads to osteoclast differentiation (protein, UniProt O14788 140-317, looked up)
Tumor necrosis factor ligand …: IRAEKAMVDGSWLDLAKRSKLEAQPFAHLTINATDIPSGSHKVSLSSWYHDRGWAKISNMTFSNGKLIVNQDGFYYLYANICFRHHETSGDLATEYLQLMVYVTKTSIKIPSSHTLMKGGSTKYWSGNSEFHFYSINVGGFFKLRSGEEISIEVSNPSLLDPDQDATYFGAFKVRDID
With B1 the “capG phosphorylation on stimulation” value was “causes capG 102 phosphorylation”.
